# Measurements reported in PMC5564291 (Cell, 2016).
# What was measured:
# Test in all cases: ITC
# [1] = biological target: PSD-95 PDZ3 (aa R306–E398) (human) (UniProt P78352)
# [2] = biological target: PSD-95 PDZ3-C (aa R306-S412) (human) (UniProt P78352)
# [3] = biological target: PSD-95 PSG WT (aa R306-L721) (human, UniProt P78352-3 306-721)
Kd [1] [µM],fold higher affinity than PDZ3 [2] [fold],Molecule,binding result [3]
27,15,N-terminal thioredoxin-tagged last 30 residues of SynGAP (SynGAP PBM) (domain or fragment),
,,"SynGAP CC-PBM L-D&K-D mutant (L1202D and K1252D) (domain or fragment, mouse, UniProt J3QQ18 1147-1308, looked up) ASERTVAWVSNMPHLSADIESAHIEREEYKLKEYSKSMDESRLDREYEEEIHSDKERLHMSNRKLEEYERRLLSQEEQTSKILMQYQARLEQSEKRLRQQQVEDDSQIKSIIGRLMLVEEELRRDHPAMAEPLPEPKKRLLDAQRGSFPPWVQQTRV",binds
